From WO2007042289A2 (dated 2007)

Assays:
[1] = target: T1, EGFR expressed on cells and on A431 derived membrane vesicles (human, UniProt P00533 25-1210)
T1 construct: whole, on cells; Used for assays on whole cells and on immobilised A431 membrane vesicles; also called EGF receptor; EGFR harboring A431 vesicles

[2] = target: T2, purified EGFR (Sigma) (human, UniProt P00533 25-1210, limits assumed)
T2 construct: Bought; purified from human A431 cells; also called solid phase coated EGFR

[3] = target: T3, recombinant human IGF-IR (rhIGFIR) (human, UniProt P08069 31-932, limits assumed); experiment: SPR (BIAcore), immobilized IGF-IR
T3 construct: Bought; also called immobilized IGF-IR

Binder | koff [2] | further results
PMP9C1 (VHH, Anti-EGFR Nanobody; tag not described; also called Nanobody family X; Type C Nanobody) VHH: EVQLVESGGGLVQAGGSLRLSCAASGRTFSGFAMGWFRQAPGKEREFVAAISWSGGSLLYVDSVKGRFTISRDNAKNTVHLQMNSLKPGDTAVYYCAAMVGPPPRSLDYGLGNHYEYDYWGQGTQVTVSS |  | binding result [1]: binds
PMP7E12 (VHH, Anti-EGFR Nanobody) VHH: EVQLVESGGGLVQAGGSLRLSCTASGRTFENNAMAWFRQAAGKEREFVAGFSGSGGATYYAHSVEGRFTISRDNAKNTVDLQMNSLSLEDTAVYLCAARRKSGEVVFTIPARYDYWGQGTQVTVSS | ≤ 0.0017 s⁻¹ | 
PMP7A5 (VHH, Anti-EGFR Nanobody; tag not described; also called EGFRPMP7A5) VHH: EVQLVESGGGLVQAGGSLRLSCAASDRTFSSNNMGWFRQAPGKEREFVAAIGWGGLETHYSDSVKGRFTISRDNAKNTVYLQMNSLKPEDTARYYCAVSSTRTVIYTLPRMYNYWGQGTQVTVSS | ≤ 0.0017 s⁻¹ | 
PMP38G7 (VHH, also called Nanobody family VIII) VHH: EVQLVESGGGLVQAGGSLRLSCAASGRTFSSYVMGWFRQATGKEREFVATIAWDSGSTYYADSVKGRFTISRDNAKNTVHLQMNSLKPEDTAVYYCAASYNVYYNNYYYPISRDEYDYWGQGTQVTVSS | ≤ 0.0017 s⁻¹ | 
PMP1C7 (VHH, Anti-IGF-IR Nanobody; tag not described; also called IGFRPMP1C7) VHH: QVKLEESGGGLVQAGGSLRLSCVASGRTFSRTAMAWFRQAPGKEREFVATITWNSGTTRYADSVKGRFFISKDSAKNTIYLEMNSLEPEDTAVYYCAATAAAVITPTRGYYNYWGQGTQVTVSS |  | koff [3]: 0.0019 s⁻¹
27-10-E8 (VHH, Anti-EGFR Nanobody, tested as periplasmic extract or IMAC purified protein; tag not described; also called Type A Nanobody) VHH: EVQLVESGGGLVQAGGSLRLSCAASGRTFSTYTMAWFRQAPGKEREFVQGISRSDGGTYDADSVKGRFTISRDNAKNTVYLQMNSLKPEDTAVYFCAAASVKLVYVNPNRYSYWGQGTQVTVSS | ≤ 0.0017 s⁻¹ | 
